Changes are numbered by the printed parent chain. One block for each binder: values may come before it.
Tests used:
[1] = biological target: T1, human NBL1 (neuroblastoma suppressor of tumorigenicity 1) (human, UniProt P41271 17-181, limits assumed); experiment: ELISA, IgG1 format
T1 construct: Recombinant human NBL1; also called DAN; DAND1
T1 sequence (looked up): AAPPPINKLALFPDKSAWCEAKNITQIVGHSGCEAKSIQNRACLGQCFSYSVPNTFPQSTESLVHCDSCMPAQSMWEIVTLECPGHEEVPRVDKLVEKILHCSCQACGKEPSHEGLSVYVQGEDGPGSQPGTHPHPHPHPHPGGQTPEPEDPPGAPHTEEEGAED
Protocol: (§1) Naïve human phage display libraries were panned to discover Fabs capable of binding human NBL1 (UniProt ID P41271), and further screened for potential inter species cross reactivity to mouse NBL1 (UniProt ID Q61477) and/or cynomolgus (“cyno”) NBL1 (UniProt ID A0A2K5WIY3). […] Antigen binding of the IgG1 formatted antibodies was tested by ELISA and EC50 values were calculated.

mouse NBL1 = biological target: T2, mouse NBL1 (mouse, UniProt Q61477 17-178, limits assumed); experiment: ELISA, IgG1 format
T2 sequence (looked up): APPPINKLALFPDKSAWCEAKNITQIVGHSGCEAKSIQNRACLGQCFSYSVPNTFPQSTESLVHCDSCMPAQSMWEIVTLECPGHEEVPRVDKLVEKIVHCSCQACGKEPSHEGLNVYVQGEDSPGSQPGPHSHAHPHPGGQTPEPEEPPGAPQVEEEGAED
Protocol: as §1

B1: Antibody YU1018-E01 (antibody, V domains shown)
VH: QVQLVQSGAEVKKPGASVKVSCKASGYTFTSYGISWVRQAPGRGLEWMGWISAYNGNTNYAQKLQGRVTMTTDTSTSTAYMELRSLRSDDTAVYYCARGPRDGYNDYWGQGTLVTVSS
VL: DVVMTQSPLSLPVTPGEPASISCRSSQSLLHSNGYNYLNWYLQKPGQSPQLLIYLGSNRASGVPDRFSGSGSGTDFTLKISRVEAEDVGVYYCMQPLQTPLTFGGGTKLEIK
binding result [1]: binds
binding result (mouse NBL1): binds

B2: Antibody YU1018-D12 (antibody, V domains shown)
VH: EVQLVQSGAEVKKPGASVKVSCKASGYTFTSYGISWVRQAPGQGLEWMGWISAYNGNTNYAQKLQGRVTMTTDTSTSTAYMELRSLRSDDTAVYYCARDVGYSYGIFDYWGQGTLVTVSS
VL: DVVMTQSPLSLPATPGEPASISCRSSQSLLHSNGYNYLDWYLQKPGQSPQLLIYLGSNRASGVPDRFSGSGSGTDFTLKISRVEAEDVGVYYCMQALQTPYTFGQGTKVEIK
binding result [1]: binds
binding result (mouse NBL1): binds

B3: Antibody YU1019-B06 (antibody, V domains shown)
VH: EVQLLESGGGVVQPGRSLRLSCAASGFTFSSYAMHWVRQAPGKGLEWVAVISYDGSNKYYADSVKGRFTISRDNSKNTLYLQMNSLRAEDTAVYYCASPVLRYFDWLPNYWGQGTLVTVSS
VL: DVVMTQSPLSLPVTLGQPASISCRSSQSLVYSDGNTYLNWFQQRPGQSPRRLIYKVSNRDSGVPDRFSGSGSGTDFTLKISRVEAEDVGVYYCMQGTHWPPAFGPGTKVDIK
binding result [1]: binds
binding result (mouse NBL1): binds

B4: Antibody YU1018-E07 (antibody, V domains shown)
VH: B3 VH with L116T
VL: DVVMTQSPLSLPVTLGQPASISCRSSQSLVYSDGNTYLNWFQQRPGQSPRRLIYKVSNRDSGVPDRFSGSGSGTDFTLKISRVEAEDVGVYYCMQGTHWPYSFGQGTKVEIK
binding result [1]: binds
binding result (mouse NBL1): binds

B5: Antibody YU1019-A12 (antibody, V domains shown)
VH: EVQLLESGPGLVKPSQTLSLTCTVSGGSISSGDYYWSWIRQPPGKGLEWIGYIYYSGSTYYNPSLKSRVTISVDTSKNQFSLKLSSVTAADTAVYYCARGRRLLLFHWGQGTTVTVSS
VL: QSVLTQPPSVSAAPGQKVTISCSGSGSSIGNNYVSWYQQVPGTPPKLLIYDNNKRASGIPDRFSGSKSGTSATLGITGLQTGDEADYYCGTWDNSLSAVVFGGGTKLTVL
binding result [1]: binds
binding result (mouse NBL1): binds

B6: Antibody YU1018-D06 (antibody, V domains shown)
VH: QVQLVESGPGLVKPSQTLSLTCTVSGGSISSGGYYWSWIRQHPGKGLEWIGYIYYSGSTYYNPSLKSRVTISVDTSKNQFSLKLSSVTAADTAVYYCARSGAAGIPWFDPWGQGTLVTVSS
VL: B5 VL with G26S, S28N, V40L, P44A, D51E, K54E, A56P, F63L, G75A, N94S
binding result [1]: binds
binding result (mouse NBL1): binds

The next lines start with the values.

binding result [1]: binds
binding result (mouse NBL1): binds
B7: Antibody YU1018-D08 (antibody, V domains shown)
VH: QVQLVQSGAEVKKPGSSVKVSCKASGGTFSSYAISWVRQAPGQGLEWMGGIIPIFGTANYAQKFQGRVTITADKSTSTAYMELSSLRSEDTAVYYCARDRYYDSSGYYLMDPWGQGTLVTVSS
VL: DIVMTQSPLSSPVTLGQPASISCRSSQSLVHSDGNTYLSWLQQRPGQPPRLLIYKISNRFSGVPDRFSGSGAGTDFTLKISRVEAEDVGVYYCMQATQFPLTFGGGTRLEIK

binding result [1]: binds
binding result (mouse NBL1): binds
B8: Antibody YU1018-G01 (antibody, V domains shown)
VH: QVQLVQSGAEVKKPGASVKVSCKASGYTFTSYAMHWVRQAPGQRLEWMGWINAGNGNTKYSQKFQGRVTITRDTSASTAYMELSSLRSEDTAVYYCARGRELLTFDYWGQGTLVTVSS
VL: not shown

binding result [1]: binds
binding result (mouse NBL1): binds
B9: Antibody YU1018-E04 (antibody, V domains shown)
VH: QVQLVQSGAEVKKPGESLKISCKGSGYSFTSYWIGWVRQMPGKGLEWMGIIYPGDSDTRYSPSFQGQVTISADKSISTAYLQWSSLKASDTAMYYCARAIVGATSGYWFDPWGQGTLVTVSS
VL: not shown

Source: US20260265357A1 (NEPHRIS, published 2026)
